Data reported in PMC7019167, “Development of a high affinity Anticalin® directed against human CD98hc for theranostic applications” (Theranostics, 2020).
Substitutions are numbered along the chain they refer to. Values belong to the binder of their own block, whether it stands above or below them.

Key:
[1] = target: T1, glycosylated human CD98hc ectodomain (hCD98hcEDg), monobiotinylated (human, UniProt P08195-2 111-529, single biotin group on the biotin acceptor peptide (BirA co-expressed); N-glycosylated); assay: SPR; biotinylated hCD98hcEDg immobilised (ΔRU ≈ 225) on a streptavidin-functionalized sensorchip (Biotin CAPture kit); BIAcore 2000, 25 °C, HBS-T (20 mM Hepes/NaOH pH 7.5, 150 mM NaCl, 0.005% Tween 20); single cycle kinetics, five injections of a 1:2 dilution series of the lipocalin variant; global 1:1 Langmuir fit; KD = koff/kon; settings: both partners purified
T1 construct: human CD98 heavy chain, extracellular domain, UniProt ID P08195-2, residues Glu111-Ala529; also called 4F2hc; SLC3A2; not shown: biotin acceptor peptide (BAP), N-terminal, kept
T1 sequence (looked up): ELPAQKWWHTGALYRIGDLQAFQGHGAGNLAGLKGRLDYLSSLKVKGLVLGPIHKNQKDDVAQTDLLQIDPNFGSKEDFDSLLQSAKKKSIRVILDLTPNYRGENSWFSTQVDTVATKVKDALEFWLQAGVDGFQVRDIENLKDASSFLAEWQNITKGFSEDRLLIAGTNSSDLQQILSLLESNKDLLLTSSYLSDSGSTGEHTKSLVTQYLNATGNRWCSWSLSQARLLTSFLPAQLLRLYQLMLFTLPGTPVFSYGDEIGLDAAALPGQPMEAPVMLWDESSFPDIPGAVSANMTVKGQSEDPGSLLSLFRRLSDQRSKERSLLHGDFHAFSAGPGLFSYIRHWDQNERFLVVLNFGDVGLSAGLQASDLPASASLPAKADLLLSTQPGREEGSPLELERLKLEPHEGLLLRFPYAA

[2] = target: human CD98hc ectodomain, unglycosylated, biotinylated (hCD98hcED) (human) (UniProt P08195); assay: SPR; single cycle kinetics (five injections of a 1:2 dilution series, 3500 s dissociation); biotinylated hCD98hcED immobilised on a streptavidin sensorchip (Biotin CAPture kit), lipocalin variant as analyte; 25 °C, HBS-T; global 1:1 Langmuir fit

Kd [1]: 162000 ± 20900 pM
koff [1]: 0.09 s⁻¹
kon [1]: 560000 M⁻¹ s⁻¹
B1: lipocalin variant (Anticalin) P1E4 (designed binder)
chain: QDSTSDLIPAPPLSKVPLQQNFQDNQFHGKWYVVGIAGNSMLREDKDPFKMTATIYELKEDKSYNVTRVRFDDKKCLYRILTFVPGSQPGEFTLGNIKSRPGWTSWLVRVVSTNYNQHAMVFFKRVHQNRETFWITLYGRTKELTSELKENFIRFSKSLGLPENHIVFPVPIDQCIDG
notes: source: E. coli JM83, periplasmic extract, purified (IMAC, SEC)

koff [1]: 5e-05 s⁻¹
kon [1]: 300000 M⁻¹ s⁻¹
B2: lipocalin variant (Anticalin) P3D11 (designed binder)
chain: QDSTSDLIPAPPLSKVPLQQNFQDNQFHGKWYVVGRAGNTGLREDKDPGKMFATIYELKEDKSYNVTYVWFGQKKCMYSIGTFVPGSQPGEFTLGNIKSAPGRTSWLVRVVSTNYNQHAMVFFKSVTQNREGFAITLYGRTKELTSELKENFIRFSKSLGLPENHIVFPVPIDQCIDG
notes: as for B1

Kd [2]: 60 pM
koff [2]: 2.6e-05 s⁻¹
kon [2]: 450000 M⁻¹ s⁻¹
τ1/2 (complex half-life) [2]: 7.37 h
Kd [1]: 50 ± 3 pM
koff [1]: 2.2e-05 s⁻¹
kon [1]: 460000 M⁻¹ s⁻¹
B3: Anticalin D11vs (P3D11 with Phe71Ser and Gly81Val) (designed binder)
chain: B2 chain with F71S, G81V
notes: source: E. coli, soluble protein at preparative scale, purified
